According to paper doi:10.1101/2022.01.10.475532:

What was measured:
[1] = molecular target: prefusion-stabilized S protein of SARS-CoV-2 Delta (B.1.617.2) variant (S trimer) (SARS-CoV-2); assay: BLI
[2] = molecular target: prefusion-stabilized S protein of SARS-CoV-2 G614 variant (S trimer) (SARS-CoV-2); assay: BLI

Chain of human ACE2 peptidase domain (PD) (Q9BYF1 18-615): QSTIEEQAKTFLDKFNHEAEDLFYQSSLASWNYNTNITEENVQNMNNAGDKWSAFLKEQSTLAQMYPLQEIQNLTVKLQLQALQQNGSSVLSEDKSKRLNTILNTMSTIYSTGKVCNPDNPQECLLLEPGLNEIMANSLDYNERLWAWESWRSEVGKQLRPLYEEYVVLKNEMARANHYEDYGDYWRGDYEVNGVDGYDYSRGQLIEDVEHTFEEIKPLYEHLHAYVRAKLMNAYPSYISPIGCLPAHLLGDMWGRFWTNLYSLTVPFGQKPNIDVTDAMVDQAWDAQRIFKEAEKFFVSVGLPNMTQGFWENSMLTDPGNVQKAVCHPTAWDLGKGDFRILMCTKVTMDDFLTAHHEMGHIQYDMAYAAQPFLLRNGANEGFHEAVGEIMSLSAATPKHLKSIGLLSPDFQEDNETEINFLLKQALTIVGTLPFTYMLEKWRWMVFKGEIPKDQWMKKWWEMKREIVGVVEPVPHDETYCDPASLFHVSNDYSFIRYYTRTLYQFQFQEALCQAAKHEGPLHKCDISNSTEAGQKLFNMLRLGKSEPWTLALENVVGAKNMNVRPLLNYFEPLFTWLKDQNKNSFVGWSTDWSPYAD

“human ACE2 peptidase domain (PD) (from UniProt Q9BYF1 18-615) (domain or fragment)” gave a Kd [1] of 0.088 µM and a Kd [2] of 0.237 µM.
